Values of other authors, collected in article PMC12498412.

Target: Barnase (Bacillus amyloliquefaciens) (UniProt P00648)
Sequence (P00648 48-157): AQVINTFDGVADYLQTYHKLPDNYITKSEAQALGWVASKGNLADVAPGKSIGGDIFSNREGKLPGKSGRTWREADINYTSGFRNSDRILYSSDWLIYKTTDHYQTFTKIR

Barstar, sequence (P11540 2-90): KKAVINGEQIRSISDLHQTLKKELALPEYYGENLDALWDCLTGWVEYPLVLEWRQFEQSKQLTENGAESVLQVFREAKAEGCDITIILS

Kd: 64 nM
Substance: Barstar (from UniProt P11540)
